Columns and labels:
[1] = test system: PSMA-expressing LNCaP cancer xenografts; conditions: mouse, in vivo
Protocol: (§1) LNCaP cell line was obtained from ATCC (LNCaP clone FGC, CRL-1740). […] Cells were cultured in PRM I 1640 medium supplemented with 10% FBS, penicillin (100 U/mL) and streptomycin (100 μg/mL) at 37° C. in a humidified incubator containing 5% CO2. Cells grown to 80-90% confluence were then washed with sterile phosphate-buffered saline (1× PBS pH 7.4) and collected by trypsinization. The collected cells concentration was counted with a Hausser Scientific (Horsham, Pa.) Hemacytometer.
(§2) Imaging and biodistribution experiments were performed using NODSCID 1 L2RγKO male mice. Mice were anesthetized by inhalation with 2% isoflurane in oxygen, and implanted subcutaneously with 1×10^7 LNCaP cells behind left shoulder. Mice were imaged or used in biodistribution studies when the tumor grew up to reach 5-8 mm in diameter during 5-6 weeks.
(§3) PET imaging experiments were conducted using Siemens Inveon micro PET/CT scanner. Each tumor bearing mouse was injected 6-8 MBq of Ga-68 labeled tracer through the tail vein under anesthesia (2% isoflurane in oxygen). The mice were allowed to recover and roam freely in their cage. After 50 min, the mice were sedated again with 2% isoflurane in oxygen inhalation and positioned in the scanner. A 10-min CT scan was conducted first for localization and attenuation correction after segmentation for reconstructing the PET images. Then, a 10-min static PET imaging was performed to determined uptake in tumor and other organs. The mice were kept warm by a heating pad during acquisition. For biodistribution studies, the mice were injected with the radiotracer as described above. The mice was anesthetized with 2% isoflurane inhalation, and euthanized by CO2 inhalation. Blood was withdrawn immediately from the heart, and the organs/tissues of interest were collected. The collected organs/tissues were weighed and counted using a Perkin Elmer (Waltham, Mass.) Wizard2 2480 gamma counter. The uptake in each organ/tissue was normalized to the injected dose using a standard curve, and expressed as the percentage of the injected dose per gram of tissue (% ID/g).
(§4) LNCaP cell line was obtained from ATCC (LNCaP clone FGC, CRL-1740). […] Cells were cultured in PRM I 1640 medium supplemented with 10% FBS, penicillin (100 U/mL) and streptomycin (100 μg/mL) at 37° C. in a humidified incubator containing 5% CO2. Cells grown to 80-90% confluence were then washed with sterile phosphate-buffered saline (1× PBS pH 7.4), and collected by trypsinization. The collected cell concentration was counted with a Hausser Scientific (Horsham, Pa.) Hemacytometer.
(§5) Imaging and biodistribution experiments were performed using NODSCID 1L2RγKO male mice. Mice were anesthetized by inhalation with 2% isoflurane in oxygen, and implanted subcutaneously with 1×10^7 LNCaP cells behind left shoulder. Mice were imaged or used in biodistribution studies when the tumor grew up to reach 5-8 mm in diameter during 5-6 weeks.
(§6) PET imaging experiments were conducted using Siemens Inveon micro PET/CT scanner. Each tumor bearing mouse was injected 6-8 MBq of Ga-68 or F-18 labeled tracer through the tail vein under anesthesia (2% isoflurane in oxygen). The mice were allowed to recover and roam freely in their cage. After 50 min, the mice were sedated again with 2% isoflurane in oxygen inhalation and positioned in the scanner. A 10-min CT scan was conducted first for localization and attenuation correction after segmentation for reconstructing the PET images. Then, a 10-min static PET imaging was performed to determined uptake in tumor and other organs.
(§7) For biodistribution studies, the mice were injected with the radiotracer as described above.

[2] = in vivo; conditions: male, NODSCID 1L2RγKO, mouse, iv, total radioactivity; for excreta dose per gram or mL at 1 h: Urine uptake
Protocol: as §1, §2, §3, §4, §5, §6, §7

## O=C(O)CCCCC(NC(=O)N[C@@H](CCCCNC(=O)[C@H](Cc1c2ccccc2cc2ccccc12)NC(=O)[C@H]1CC[C@H](CNC(=O)CN2CCN(CC(=O)O)CCN(CC(=O)O)CCN(CC(=O)O)CC2)CC1)C(=O)O)C(=O)O (single isomer, unassigned) [68Ga-HTK03189A, metal not drawn]
[1]; male, NODSCID 1L2RγKO, iv, 1 h
  Tumor uptake: 2.10 ± 0.28 % ID/g
[1]
  Blood: Salivary ratio: 4.39 ± 0.44
  Tumor: Blood ratio: 2.41 ± 0.29
  Tumor: Kidney ratio: 0.83 ± 0.21
  Tumor: Muscle ratio: 16.5 ± 4.08
  Tumor: Salivary ratio: 10.5 ± 1.07
[2]; Adrenal glands uptake
  tissue uptake at 1 h: 0.35 ± 0.06 %ID/g
[2]; Blood uptake
  tissue uptake at 1 h: 0.89 ± 0.22 %ID/g
[2]; Bone uptake
  tissue uptake at 1 h: 0.12 ± 0.03 %ID/g
[2]; Brain uptake
  tissue uptake at 1 h: 0.02 %ID/g
[2]; Fat uptake
  tissue uptake at 1 h: 0.18 ± 0.11 %ID/g
[2]; Heart uptake
  tissue uptake at 1 h: 0.24 ± 0.06 %ID/g
[2]; Intestine uptake
  tissue uptake at 1 h: 0.31 ± 0.18 %ID/g
[2]; Kidneys uptake
  tissue uptake at 1 h: 2.65 ± 0.69 %ID/g
[2]; Lacrimal uptake
  tissue uptake at 1 h: 0.18 ± 0.18 %ID/g
[2]; Liver uptake
  tissue uptake at 1 h: 0.34 ± 0.15 %ID/g
[2]; Lungs uptake
  tissue uptake at 1 h: 0.68 ± 0.12 %ID/g
[2]; Muscle uptake
  tissue uptake at 1 h: 0.14 ± 0.04 %ID/g
[2]; Pancreas uptake
  tissue uptake at 1 h: 0.15 ± 0.04 %ID/g
[2]; Salivary uptake
  tissue uptake at 1 h: 0.2 ± 0.04 %ID/g
[2]; Seminal uptake
  tissue uptake at 1 h: 3.61 ± 4.59 %ID/g
[2]; Spleen uptake
  tissue uptake at 1 h: 0.21 ± 0.1 %ID/g
[2]; Stomach uptake
  tissue uptake at 1 h: 0.11 ± 0.06 %ID/g
[2]; Tail uptake
  tissue uptake at 1 h: 0.77 ± 0.3 %ID/g
[2]; Testes uptake
  tissue uptake at 1 h: 0.23 ± 0.11 %ID/g
[2]; Thyroid uptake
  tissue uptake at 1 h: 0.25 ± 0.05 %ID/g
[2]
  excreta dose per gram or mL at 1 h: 343 ± 54.4 %ID/g

## O=C(O)CCCCC(NC(=O)N[C@@H](CCCCNC(=O)[C@H](Cc1c2ccccc2cc2ccccc12)NC(=O)[C@H]1CC[C@H](CNC(=O)CN2CCN(CC(=O)O)CCN(CC(=O)O)CCN(CC(=O)O)CC2)CC1)C(=O)O)C(=O)O (single isomer, unassigned) [68Ga-HTK03189B, metal not drawn]
[1]; male, NODSCID 1L2RγKO, iv, 1 h
  Adrenal glands uptake: 0.37 ± 0.15 % ID/g
  Blood uptake: 1.06 ± 0.25 % ID/g
  Bone uptake: 0.10 ± 0.02 % ID/g
  Brain uptake: 0.03 ± 0.00 % ID/g
  Fat uptake: 0.17 ± 0.10 % ID/g
  Heart uptake: 0.30 ± 0.06 % ID/g
  Intestine uptake: 0.28 ± 0.07 % ID/g
  Kidneys uptake: 2.13 ± 0.45 % ID/g
  Lacrimal uptake: 0.13 ± 0.04 % ID/g
  Liver uptake: 0.39 ± 0.08 % ID/g
  Lungs uptake: 0.82 ± 0.22 % ID/g
  Muscle uptake: 0.12 ± 0.03 % ID/g
  Pancreas uptake: 0.18 ± 0.05 % ID/g
  Salivary uptake: 0.22 ± 0.04 % ID/g
  Seminal uptake: 2.62 ± 4.74 % ID/g
  Spleen uptake: 0.20 ± 0.05 % ID/g
  Stomach uptake: 0.11 ± 0.03 % ID/g
  Tail uptake: 0.90 ± 0.29 % ID/g
  Testes uptake: 0.26 ± 0.05 % ID/g
  Thyroid uptake: 0.29 ± 0.08 % ID/g
  Tumor uptake: 0.67 ± 0.15 % ID/g
  Urine uptake: 441 ± 138 % ID/g
[1]
  Blood: Salivary ratio: 4.86 ± 1.16
  Tumor: Blood ratio: 0.65 ± 0.15
  Tumor: Kidney ratio: 0.32 ± 0.05
  Tumor: Muscle ratio: 5.68 ± 1.12
  Tumor: Salivary ratio: 3.08 ± 0.53

## O=C(O)CC[C@H](NC(=O)N[C@@H](CCCCNC(=O)[C@H](Cc1c2ccccc2cc2ccccc12)NC(=O)[C@H]1CC[C@H](CNC(=O)CN2CCN(CC(=O)O)CCN(CC(=O)O)CCN(CC(=O)O)CC2)CC1)C(=O)O)C(=O)O [68Ga-HTK03041, metal not drawn]
[2]; Adrenal glands uptake
  tissue uptake at 1 h: 8.9 ± 2.56 %ID/g
[2]; Blood uptake
  tissue uptake at 1 h: 1.43 ± 0.3 %ID/g
[2]; Bone uptake
  tissue uptake at 1 h: 1.29 ± 0.45 %ID/g
[2]; Brain uptake
  tissue uptake at 1 h: 0.1 ± 0.05 %ID/g
[2]; Fat uptake
  tissue uptake at 1 h: 2.06 ± 0.59 %ID/g
[2]; Heart uptake
  tissue uptake at 1 h: 1.82 ± 0.21 %ID/g
[2]; Intestine uptake
  tissue uptake at 1 h: 1.14 ± 0.18 %ID/g
[2]; Kidneys uptake
  tissue uptake at 1 h: 170 ± 26.4 %ID/g
[2]; Lacrimal uptake
  tissue uptake at 1 h: 2.44 ± 1.79 %ID/g
[2]; Liver uptake
  tissue uptake at 1 h: 1.38 ± 0.25 %ID/g
[2]; Lungs uptake
  tissue uptake at 1 h: 4.32 ± 0.62 %ID/g
[2]; Muscle uptake
  tissue uptake at 1 h: 0.75 ± 0.09 %ID/g
[2]; Pancreas uptake
  tissue uptake at 1 h: 1.47 ± 0.16 %ID/g
[2]; Salivary uptake
  tissue uptake at 1 h: 4.99 ± 0.88 %ID/g
[2]; Seminal uptake
  tissue uptake at 1 h: 1.03 ± 0.27 %ID/g
[2]; Spleen uptake
  tissue uptake at 1 h: 8.95 ± 3.22 %ID/g
[2]; Stomach uptake
  tissue uptake at 1 h: 0.41 ± 0.11 %ID/g
[2]; Tail uptake
  tissue uptake at 1 h: 1.36 ± 0.45 %ID/g
[2]; Testes uptake
  tissue uptake at 1 h: 1.34 ± 0.22 %ID/g
[2]; Thyroid uptake
  tissue uptake at 1 h: 2.48 ± 0.44 %ID/g
[2]; Tumor uptake
  tissue uptake at 1 h: 23.1 ± 6.11 %ID/g
[2]
  excreta dose per gram or mL at 1 h: 173 ± 93 %ID/g
